# Article PMC4613530, “Structure-based design and functional studies of novel noroviral 3C protease chimaeras offer insights into substrate specificity” (Biochemical Journal, 2014)
# Target: the molecule itself
# Assay: non-reducing PAGE; purified NS6 proteases analysed by non-reducing PAGE; major band at approximately 18 kDa, minor band at approximately 36 kDa taken as the dimer
row,Protein,binding result
1,"wild-type murine norovirus NS6 protease (enzyme, NS6 protease (3C-like protease), cut product of the ORF1 polyprotein of murine norovirus 1; expressed flanked by 41 residues of NS5 and 41 residues of NS7 and released by self-cleavage as the 19 kDa mature NS6; its strain may differ at a few residues from the UniProt entry; The tags sit upstream of the NS5 stretch and leave with it on self-excision; also called wtMNV NS6; MNV NS6; not shown: His …) APVSIWSRVVQFGTGWGFWVSGHVFITAKHVAPPKGTEIFGRKPGDFTVTSSGDFLKYYFTSAVRPDIPAMVLENGCQEGVVASVLVKRASGEMLALAVRMGSQAAIKIGSAVVHGQTGMLLTGSNAKAQDLGTIPGDCGCPYVYKKGNTWVVIGVHVAATRSGNTVIAATHGEPTLEALEFQ",binds
2,"wild-type Southampton virus NS6 protease (enzyme, NS6 protease (3C-like protease), cut product of the ORF1 polyprotein of Southampton virus (human norovirus); also called wtSV NS6; SV NS6) APPTLWSRVTKFGSGWGFWVSPTVFITTTHVIPTSAKEFFGEPLTSIAIHRAGEFTLFRFSKKIRPDLTGMILEEGCPEGTVCSVLIKRDSGELLPLAVRMGAIASMRIQGRLVHGQSGMLLTGANAKGMDLGTIPGDCGAPYVYKRANDWVVCGVHAAATKSGNTVVCAVQASEGETTLE",binds
